Results: the Human Domainome abundance scans (Beltran et al. 2025)
± gives the uncertainty stated by the source.

B1: Heterogeneous nuclear ribonucleoprotein U-like protein 2, residues 1 to 40; numbered along this chain, Q1KMD3 (parent)
chain: MEVKRLKVTELRSELQRRGLDSRGLKVDLAQRLQEALDAE

Variants of: B1
Assay: abundance fitness (aPCA) (normalised: wild type 0, dead -1); higher = more abundant; growth selection in yeast, the domain comes from the species named
Settings: Homo sapiens

In order of falling abundance fitness:
1. L25A  0.189 ± 0.054
2. L25T  0.155 ± 0.081
3. L25H  0.105 ± 0.088
4. S22V  0.079 ± 0.059
5. R17Q  0.008 ± 0.069
6. R17M  0.006 ± 0.058
7. S22Q  0 ± 0.064
8. S22G  -0.052 ± 0.053
9. L11M  -0.055 ± 0.062
10. S22M  -0.064 ± 0.1
11. L29D  -0.104 ± 0.074
12. L11I  -0.109 ± 0.09
13. R17E  -0.121 ± 0.062
14. R17I  -0.173 ± 0.095
15. R17T  -0.184 ± 0.07
16. L29G  -0.188 ± 0.051
17. L29I  -0.189 ± 0.075
18. D28H  -0.19 ± 0.085
19. L25W  -0.248 ± 0.068
20. R17G  -0.252 ± 0.056
21. E2W  -0.263 ± 0.067
22. E2I  -0.271 ± 0.12
23. E14M  -0.274 ± 0.081
24. G19S  -0.276 ± 0.061
25. E2L  -0.294 ± 0.068
26. L29P  -0.299 ± 0.067
27. L15P  -0.312 ± 0.075
28. E2A  -0.33 ± 0.061
29. S22K  -0.333 ± 0.079
30. L29H  -0.346 ± 0.098
31. L29N  -0.352 ± 0.1
32. R18K  -0.356 ± 0.088
33. E2R  -0.365 ± 0.07
34. G19A  -0.369 ± 0.051
35. L11V  -0.375 ± 0.059
36. D28M  -0.382 ± 0.13
37. E2C  -0.388 ± 0.088
38. L15M  -0.389 ± 0.069
39. G19E  -0.396 ± 0.084
40. S22R  -0.402 ± 0.055
41. R18P  -0.436 ± 0.097
42. L11T  -0.436 ± 0.082
43. L11S  -0.438 ± 0.059
44. G19R  -0.444 ± 0.052
45. R17Y  -0.455 ± 0.099
46. R18G  -0.481 ± 0.052
47. E14C  -0.489 ± 0.069
48. L15E  -0.491 ± 0.054
49. D28L  -0.497 ± 0.055
50. L11G  -0.502 ± 0.046
51. E14H  -0.512 ± 0.11
52. D28G  -0.513 ± 0.061
53. G19T  -0.521 ± 0.07
54. R17W  -0.521 ± 0.063
55. E14I  -0.551 ± 0.1
56. G19P  -0.555 ± 0.062
57. G24P  -0.578 ± 0.072
58. L11P  -0.584 ± 0.065
59. L15T  -0.586 ± 0.13
60. E14Y  -0.634 ± 0.088
61. E14D  -0.635 ± 0.075
62. G19L  -0.64 ± 0.061
63. L11R  -0.641 ± 0.049
64. R18Y  -0.652 ± 0.1
65. R18C  -0.668 ± 0.092
66. D28P  -0.681 ± 0.1
67. R18F  -0.685 ± 0.13
68. R18A  -0.699 ± 0.066
69. G24S  -0.703 ± 0.072
70. D28Y  -0.715 ± 0.17
71. R17N  -0.77 ± 0.44
72. L15R  -0.815 ± 0.054
73. L11H  -0.827 ± 0.22
74. G24T  -0.837 ± 0.074
75. L29W  -0.853 ± 0.069
76. G24V  -0.855 ± 0.057
77. G24K  -0.945 ± 0.12
78. G24L  -0.984 ± 0.076
79. G24R  -1.03 ± 0.051
80. L15W  -1.04 ± 0.068
81. G19Y  -1.04 ± 0.19
82. G24Y  -1.1 ± 0.17
83. G24W  -1.47 ± 0.08
